These results are taken from US20250297018A1, “IL-18BP ANTAGONIST ANTIBODIES AND THEIR USE IN MONOTHERAPY AND COMBINATION THERAPY IN THE TREATMENT OF CANCER” (Compugen Ltd., priority 2022, published 2025).

Residue numbers refer to the chain shown, from its start.

Data set [1] is described as follows: MC38ova tumor-bearing mice treated with anti-mIL18BP or engineered mIL-18: weight, serum cytokines, spleen. Type of data set: in vivo, mouse. The settings on record: spleens harvested 24 hours after the 4th treatment (IL-15: single dose), vs control. As to the method: Experiments were performed in C57Bl/6 (female, 6-8 wk, Envigo). Mice were anesthetized with 10% Ketamine and 10% Xylazine mixture injected intraperitoneal. Next, mice were inoculated with MC38ova cells (1.2×10^6) subcutaneously to the right flank in 50 μl/mice.
Spleens were harvested from mice 24 hours after the 4th treatment and weighed. For IL15 experiments, mice were treated with a single dose of 0.5 μg, 1.5 μg of IL15, or with a mix of 0.5 μg IL15 and 2.33 μg IL15R.

Another data set addresses T1, IL18 (Homo sapiens, UniProt Q14116).
T1 sequence (Q14116 37-193): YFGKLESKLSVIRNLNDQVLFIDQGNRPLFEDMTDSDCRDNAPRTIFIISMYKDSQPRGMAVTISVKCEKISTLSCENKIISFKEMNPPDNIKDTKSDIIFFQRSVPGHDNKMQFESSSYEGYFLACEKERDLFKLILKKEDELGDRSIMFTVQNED
The settings on record: Kim et al., PNAS 2000; read-out: Dissociation constant (Kd) for IL18; cited from earlier work.

A further data set relates to human whole blood. Kind of data set: Whole blood loop assay (ID.Flow). The data set is classed as cell-based. Particulars: ex vivo whole blood loop, six healthy volunteers, 24 hr. As to the method: Flow, an ex vivo system that mimics the human blood circulation. Fresh whole blood was taken from six healthy volunteers and immediately transferred to a whole blood loop system. The test items were administered, and the blood was set to circulate at 37° C. to prevent clotting. Blood samples collected at the 24 hr time point were analyzed for hematology and flow cytometry parameters and then processed to plasma for cytokine analysis. The anti-CD52 antibody Alemtuzumab was included as a reference antibody with manageable cytokine release in the clinic.

For another data set, the target named is T2, endogenous IL-18BP (Homo sapiens, UniProt O95998).
T2 construct: endogenous in cells; host or cells: MEL624 cells co-cultured with human TILs
T2 sequence (O95998 31-194): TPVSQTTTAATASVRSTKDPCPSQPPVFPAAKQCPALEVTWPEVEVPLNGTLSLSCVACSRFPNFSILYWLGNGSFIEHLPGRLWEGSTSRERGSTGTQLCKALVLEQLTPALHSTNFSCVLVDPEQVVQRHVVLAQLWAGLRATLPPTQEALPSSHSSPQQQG
Description: MEL624:TIL co-culture with endogenous IL-18BP levels, IFNg release. The data set is classed as cell-based. Particulars: IL-18 3.7 ng/ml, 5 μg/ml antibody, 18 hours, vs isotype. As to the method:
A. Schematic representation of assay setup. MEL624 cells were co-cultured with human TILs that were previously enriched for MARTI or gp100 peptide-specific clones. IL-18 (3.7 ng/ml) was added to the co-culture along with 5 μg/ml ADI-71739 or isotype control. The co-culture was set for 18 hours following which IFNg levels were measured in supernatants. B. IFNg levels were increased in co-cultures treated with ADI-71739 (turquoise) as compared with isotype-treated samples (black). Representative examples from two TIL donors are shown.

Another data set has as its system MEL624 cells. Description: Killing of MEL624 melanoma cells by human TILs (IncuCyte). Type of data set: cell-based. Particulars: rhIL-18 50 ng/ml + rhIL-18BP 1 μg/ml, 10 μg/ml antibody, 72 hours. As to the method: MEL624 cells were co-cultured with human TILs that were previously enriched for MARTI or gp100 peptide-specific clones. rhIL-18 (R&D systems, 50 ng/ml) and rhIL-18BP (R&D systems, 1 μg/ml) were added to the co-culture for 30 minutes to allow the formation of IL-18:IL-18BP complex prior to treatment with 10 μg/ml ADI-71739 or isotype control. The co-culture was monitored for 72 hours using an IncuCyte live cell imaging instrument. […] In the presence of the isotype control antibody (black), IL-18BP abrogated the effects of IL-18, while the anti-IL-18BP antibody (turquoise) was able to completely restore these effects.

Data set [2] has as its target T3, recombinant human IL18-BP (Homo sapiens, UniProt O95998).
T3 construct: purchased R&D systems 119-BP; host or cells: added to MEL624/PD-L1 + CMV-reactive T-cell culture
T3 sequence (O95998 31-194): T2 sequence (O95998 31-194)
Kind of data set: MEL624:TIL assay, IFNγ secretion. The data set is classed as cell-based. The settings on record: rhIL-18 30 ng/ml + rhIL-18BP 1 μg/ml, 24 h, vs isotype control. How it is done: Human MEL624 cells were thawed and grown in DMEM with 10% FBS, 1% Glutamax, 1% Penicillin-Streptomycin Solution and 1% HEPES buffer. The cells were then seeded at 75 k cells/well in a 96 well plate in the assay medium (IMDM with 10% human serum, 1% Glutamax, 1% MEM eagle, 1% Sodium Pyruvate and 1% Penicillin-Streptomycin Solution) and incubated 1 hour in 37° C., 5% CO2 incubator before co-culture with human tumor infiltrating lymphocytes that were previously expanded using known melanoma antigens (TILs). Human TILs were thawed in full TIL media and 75 k cells/well were co-cultured with the MEL624 cells to create an effector:target ratio of 1:1. The co-cultured cells were then treated with rhIL-18 (30 ng/ml) and rhIL-18BP (1 μg/ml) for 30 min in 37° C., 5% CO2 incubator to allow IL-18:IL-18BP complex formation. After 30 minutes, anti-human IL-18BP mAb (ADI-71722, dose titration, 30 μg/ml-0.01 μg/ml, dilution factor of 1:3) or relevant isotype control (hIgG1 30 μg/ml) were added to the co-culture to examine its capability to restore IL-18 activity. Cells and all added solutions were prepared in full assay medium to a final volume of 200 μl/well. Plates were incubated for 24 hours in 37° C., 5% CO2 incubator, after which the supernatant was collected for cytokine secretion evaluation. […]
Where applicable, the EC50 value was calculated using GraphPad Prism software.

Data set [3] has as its target T3, recombinant human IL18-BP. Kind of data set: CMV recall assay, IFNγ secretion by CMV-reactive T-cells. Type of data set: cell-based. The settings on record: rhIL-18 30 ng/ml + rhIL-18BP 2 μg/ml; antibodies 10 μg/ml. As to the method: Human MEL-624 overexpressing PD-L1 cells were thawed and loaded with CMV pp65 peptide (0.03 μg/ml). The cells were seeded at 100K/well in a 96 well plate and incubated for 30 minutes in 37° C., 5% CO2 incubator with a combination rhIL-18 (30 ng/ml, R&D systems, 9124-IL/CF) and rhIL-18BP-Fc chimeric protein ([…], R&D systems 119-BP) to allow IL-18+IL-18BP complex formation. After 30 minutes, anti-human IL-18BP (ADI-71722, anti-human PVRIG, anti-human TIGIT (anti-TIGIT), anti-human PD1 (Pembrolizumab) or relevant isotype control (hIgG4) were added to the culture to examine their capability to restore IL-18 activity. All antibodies were added to a final concentration of 10 μg/ml. 30 minutes post incubation with antibodies, thawed CMV-reactive T-cells were added to the culture. Cells and all added solutions were prepared in full IMDM (IMDM media with 10% human serum, 1% Glutamax, 1% MEM eagle, 1% sodium pyruvate, and 1% Penicillin-Streptomycin Solution) to a final volume of 200 μl/well. Plates were incubated for 24 hours in 37° C., 5% CO2 incubator, after which the supernatant was collected for IFNγ secretion evaluation. All tests were done in triplicates and each repeated with three donors.
MEL624 cells that overexpress PD-L1 were loaded with CMV peptide pp65. […] CMV-specific T-cells were then added to the culture and IFNg secretion was measured after an overnight incubation.

Take “IL-15: IL15 given as single dose of 0.5 μg or 1.5 μg, or mixed with IL15R [reference compound]”: the Spleen size result in data set [1] is on record as “larger than controls”.

For the molecule “IL18-BPa: most abundant human IL18-BP isoform, isoform a”, the Kd with IL18 is around 0.4 nM.

B1: ADI-71709: anti-IL18-BP antibody, VH SEQ ID NO: 54, VL SEQ ID NO: 59 (FIG. 2A), 66650 lineage (antibody, V domains shown)
VH: QVQLVQSGAEVKKPGASVKVSCEASGYTFDIYAVHWVRQAPGQRLEWMGWIHAGTGATKYSQKFQGRVTITRDTSASTAYMELSSLRSEDTAVYYCARGLGEVGPTGTSWFDPWGQGTLVTVSS
VL: DIQMTQSPSTLSASVGDRVTITCRASQSISSWLAWYQQKPGKAPKLLIYEASSLESGVPLRFSGSGSGTEFTLTISSLQPDDFATYYCQQYRQSPFTFGGGTKVEIK
On to B1, for which the “Signs of systemic immune activation” value in the data set on human whole blood is “did not show signs of systemic immune activation”.

B2: ADI-71739: anti-IL18-BP antibody, VH SEQ ID NO: 154, VL SEQ ID NO: 159 (FIG. 2K), 66716 lineage (antibody, V domains shown)
VH: QLQLQESGPGLVKPSETLSLTCTVSGGSISSPDYPWGWIRQPPGKGLEWIGSIYYQGATYYNPSLKSRVTISVDTSKNQFSLKLSSVTAADTAVYYCARGPYRQLFDYWGQGTLVTVSS
VL: DIQMTQSPSSVSASVGDRVTITCRASQGISSWLAWYQQKPGKAPKLLIYAASSLQSGVPSRFSGSGSGTDFTLTISSLQPEDFATYYCQQGSVFPYTFGGGTKVEIK
Turning to B2, the “IFNg release by tumor infiltrating lymphocytes” value with endogenous IL-18BP is on record as “increased IFNg release by tumor infiltrating lymphocytes”. Further, the “Killing of melanoma cells by tumor infiltrating lymphocytes” value in the data set on MEL624 cells was “increased killing of melanoma cells by tumor infiltrating lymphocytes”. The “IFNγ secretion from TILs” value in data set [2] was “increase IFNγ secretion from TILs compared to isotype control”. In addition, the “IFNγ secretion by CMV-reactive T-cells” value in data set [3] was “increase IFNγ secretion by the T cells”.

B3: ADI-71722: anti-IL18-BP antibody, VH SEQ ID NO: 84, VL SEQ ID NO: 89 (FIG. 2D), 66670 lineage (antibody, V domains shown)
VH: QVQLVQSGAEVKKPGSSVKVSCKASGGTFSEYPISWVRQAPGQGLEWMGGIIPGAGTAIYAQKFQGRVTITADESTSTAYMELSSLRSEDTAVYYCARGRHFHETWGQGTLVTVSS
VL: B2 VL with G91V, S92Y, V93R, Y96W
Turning to B3, the “IFNγ secretion by CMV-reactive T-cells” value in data set [3] is given as “fully restore IFNγ secretion”.
